± gives the uncertainty stated by the source.
Assay: self-splicing fitness, log relative to wild type (ln ratio); higher = more splicing; Tetrahymena group I intron in knt gene, E. coli kanamycin selection, DiMSum; sequences stand for … in CUCUCU…GGAGGGAAAAGUUAUCAGGCAUGCACCUGGUAGCUAGUCUUUAAACCAAUAGAUUGCAUCGGUUUAAAAGGCAAGACCGUCAAAUUGCGGGAAAGGGGUCAACAGCCGUUCAGUACCAAGUCUCAGGGGAAACUUUGAGAUGGCCUUGCAAAGGGUAUGGUAAUAAGCUGACGGACAUGGUCCUAACCACGCAGCCAAGUCCUAAGUCAACAGAUCUUCUGUUGAUAUGGAUGCAGUUCACAGACUAAAUGUCGGUCGGGGAAGAUGUAUUCUUCUCAUAAGAUAUAGUCGGACCUCUCCUUAAUGGGAGCUAGCGGAUGAAGUGAUGCAACACUGGAGCCGCUGGGAACUAAUUUGUAUGCGAAAGUAUAUUGAUUAGUUUUGGAGUACUCGUGGUCG
In short: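 The eight P1ex-region nucleotides of an intron in the knt kanamycin-resistance gene on pET-22b(+) were all randomised and the library put into E. coli BL21(DE3). Six replicate transformations were grown overnight at 37°C or 30°C on LB agar with or without 25 μg/mL kanamycin, together with 100 μg/mL carbenicillin, 50 μM IPTG and 0.2% rhamnose. Colonies were pooled and amplicon-sequenced on an Illumina HiSeq 2500. Fitness from DiMSum is the error-weighted combination of wild-type-normalised replicate fold changes, kanamycin over none.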

| Sequence | self-splicing fitness (ln) (30 °C) | self-splicing fitness (ln) (37 °C) |
| --- | --- | --- |
| ACCCAGCAAUAUUACGAGCA | -0.745 ± 0.08 | -1.31 ± 0.088 |
| ACCCAGCAAUAUUACGAGGC | -2.72 ± 0.1 | -0.981 ± 0.089 |
| ACCCAGCAAUAUUACGAGGU | -3.8 ± 0.12 | -2.93 ± 0.14 |
| ACCCAGCAAUAUUACGAUAC | -2.94 ± 0.17 | -0.588 ± 0.13 |
| ACCCAGCAAUAUUACGAUUG | -4.36 ± 0.19 | -2.78 ± 0.16 |
| ACCCAGCAAUAUUACGCAAC | -2.62 ± 0.12 | -0.73 ± 0.11 |
| ACCCAGCAAUAUUACGCAAG | -2.81 ± 0.11 | -1.14 ± 0.11 |
| ACCCAGCAAUAUUACGCAUU | -0.546 ± 0.043 | 0.216 ± 0.061 |
| ACCCAGCAAUAUUACGCCGA | -1.26 ± 0.075 | -1.14 ± 0.082 |
| ACCCAGCAAUAUUACGCCGC | -3.12 ± 0.18 | -2.37 ± 0.2 |
| ACCCAGCAAUAUUACGCCUU | -0.51 ± 0.062 | 0.161 ± 0.081 |
| ACCCAGCAAUAUUACGCUAA | -1.67 ± 0.069 | -1.33 ± 0.068 |
| ACCCAGCAAUAUUACGGCCA | -1.17 ± 0.075 | -0.171 ± 0.09 |
| ACCCAGCAAUAUUACGGCGU | -2.08 ± 0.081 | -0.746 ± 0.084 |
| ACCCAGCAAUAUUACGGGUG | -2.14 ± 0.061 | -0.937 ± 0.058 |
| ACCCAGCAAUAUUACGGUGU | -2.69 ± 0.076 | -1.64 ± 0.11 |
| ACCCAGCAAUAUUACGUACU | -1.12 ± 0.059 | -0.926 ± 0.08 |
| ACCCAGCAAUAUUACGUAGA | -2.03 ± 0.1 | -1.39 ± 0.11 |
| ACCCAGCAAUAUUACGUCGA | -1.03 ± 0.078 | -0.528 ± 0.077 |
| ACCCAGCAAUAUUACGUCGC | -1.39 ± 0.069 | -0.784 ± 0.076 |
| ACCCAGCAAUAUUACGUCUA | -1.41 ± 0.093 | -0.988 ± 0.09 |
| ACCCAGCAAUAUUACGUUAA | -1.6 ± 0.078 | -0.769 ± 0.071 |
| ACCCAGCAAUAUUACGUUCU | -1.31 ± 0.062 | -1 ± 0.071 |
| ACCGAGCAAUAUUACGAAUC | -4.8 ± 0.42 | -2.61 ± 0.32 |

| Sequence | self-splicing fitness (ln) (30 °C) | self-splicing fitness (ln) (37 °C) |
| --- | --- | --- |
| ACCGAGCAAUAUUACGAGCG | -3.24 ± 0.21 | -0.734 ± 0.16 |
| ACCGAGCAAUAUUACGAGGG | -3.2 ± 0.17 | -3.06 ± 0.21 |
| ACCGAGCAAUAUUACGAUCA | -2.6 ± 0.24 | -0.928 ± 0.19 |
| ACCGAGCAAUAUUACGCACU | -1.62 ± 0.14 | -0.517 ± 0.13 |
| ACCGAGCAAUAUUACGCCUU | -2.75 ± 0.24 | -1.32 ± 0.19 |
| ACCGAGCAAUAUUACGCGUA | -2.38 ± 0.14 | -0.999 ± 0.12 |
| ACCGAGCAAUAUUACGGAAU | -3.65 ± 0.2 | -2.33 ± 0.25 |
| ACCGAGCAAUAUUACGGAGA | -1.34 ± 0.29 | -1.48 ± 0.28 |
| ACCGAGCAAUAUUACGUGAA | -4.46 ± 0.17 | -2.3 ± 0.14 |
| ACCGAGCAAUAUUACGUUGC | -3.29 ± 0.32 | -1.33 ± 0.25 |
| ACCUAGCAAUAUUACGAACG | -1.25 ± 0.12 | -1.07 ± 0.19 |
| ACCUAGCAAUAUUACGAAUU | -2.72 ± 0.13 | -0.574 ± 0.12 |
| ACCUAGCAAUAUUACGACGA | -0.405 ± 0.11 | -0.784 ± 0.093 |
| ACCUAGCAAUAUUACGCCAC | -2.11 ± 0.4 |  |
| ACCUAGCAAUAUUACGCCUC | -1.88 ± 0.13 | -1.51 ± 0.15 |
| ACCUAGCAAUAUUACGGAAA | -1.79 ± 0.16 | -1.51 ± 0.12 |
| ACCUAGCAAUAUUACGGAAU | -1.96 ± 0.08 | -1.19 ± 0.09 |
| ACCUAGCAAUAUUACGGAGU | -3.61 ± 0.13 | -2.39 ± 0.12 |
| ACCUAGCAAUAUUACGGCCA | -1.33 ± 0.13 | -0.234 ± 0.12 |
| ACCUAGCAAUAUUACGGCGU | -0.278 ± 0.056 | 0.12 ± 0.07 |
| ACCUAGCAAUAUUACGGGGC | -3.06 ± 0.15 | -1.66 ± 0.15 |
| ACCUAGCAAUAUUACGGGUC | -4.05 ± 0.23 | -2.57 ± 0.23 |
| ACCUAGCAAUAUUACGGUAG | -3.45 ± 0.15 | -2.49 ± 0.18 |
| ACCUAGCAAUAUUACGGUCA | -1.74 ± 0.091 | -0.306 ± 0.082 |

| Sequence | self-splicing fitness (ln) (30 °C) | self-splicing fitness (ln) (37 °C) |
| --- | --- | --- |
| ACCUAGCAAUAUUACGGUCU | -1.69 ± 0.096 | -0.98 ± 0.11 |
| ACCUAGCAAUAUUACGUAAC | -2.22 ± 0.12 | -1.66 ± 0.18 |
| ACCUAGCAAUAUUACGUACU | -0.755 ± 0.052 | -0.159 ± 0.062 |
| ACCUAGCAAUAUUACGUCAA | -2.03 ± 0.2 | -1.78 ± 0.17 |
| ACCUAGCAAUAUUACGUGAU | -1.5 ± 0.057 | -0.344 ± 0.074 |
| ACCUAGCAAUAUUACGUUAA | -2.38 ± 0.14 | -1.9 ± 0.17 |
| ACCUAGCAAUAUUACGUUGC | -2.21 ± 0.1 | -1.56 ± 0.14 |
| ACGAAGCAAUAUUACGAAAA | -3.5 ± 0.43 | -2.78 ± 0.43 |
| ACGAAGCAAUAUUACGAGUG | -2.77 ± 0.1 | -2.29 ± 0.11 |
| ACGAAGCAAUAUUACGCAAU | -1.6 ± 0.091 | -1.42 ± 0.094 |
| ACGAAGCAAUAUUACGCACA | -0.494 ± 0.096 | -0.0286 ± 0.098 |
| ACGAAGCAAUAUUACGCAUC | -3.54 ± 0.18 | -3.42 ± 0.3 |
| ACGAAGCAAUAUUACGCGAU | -2.21 ± 0.13 | -0.777 ± 0.14 |
| ACGAAGCAAUAUUACGCUAG | -1.5 ± 0.084 | -0.372 ± 0.11 |
| ACGAAGCAAUAUUACGCUCC | -2.06 ± 0.42 | -0.416 ± 0.41 |
| ACGAAGCAAUAUUACGGAGC | -3.94 ± 0.27 | -1.29 ± 0.23 |
| ACGAAGCAAUAUUACGGCGG | -0.224 ± 0.089 | 0.0437 ± 0.13 |
| ACGAAGCAAUAUUACGGGGG | -2.58 ± 0.15 | -2.27 ± 0.25 |
| ACGAAGCAAUAUUACGGUAG | -2.36 ± 0.15 | -2.22 ± 0.22 |
| ACGAAGCAAUAUUACGGUCG | -0.954 ± 0.066 | -0.311 ± 0.082 |
| ACGAAGCAAUAUUACGUCCG | -0.464 ± 0.097 | -0.122 ± 0.12 |
| ACGAAGCAAUAUUACGUGUA | -2.15 ± 0.058 | -1.24 ± 0.058 |
| ACGAAGCAAUAUUACGUUCA | -1.14 ± 0.05 | -0.417 ± 0.057 |
| ACGCAGCAAUAUUACGACAA | -1.61 ± 0.12 | -0.427 ± 0.097 |

| Sequence | self-splicing fitness (ln) (30 °C) | self-splicing fitness (ln) (37 °C) |
| --- | --- | --- |
| ACGCAGCAAUAUUACGACCG | -0.348 ± 0.15 | -0.0722 ± 0.19 |
| ACGCAGCAAUAUUACGACCU | 0.0699 ± 0.061 | 0.401 ± 0.073 |
| ACGCAGCAAUAUUACGAGCA | -1.58 ± 0.096 | -1.2 ± 0.11 |
| ACGCAGCAAUAUUACGAUAU | -2.42 ± 0.096 | -1.02 ± 0.12 |
| ACGCAGCAAUAUUACGAUUU | -1.01 ± 0.081 | -0.413 ± 0.1 |
| ACGCAGCAAUAUUACGCAUG | -3.56 ± 0.14 | -2.57 ± 0.21 |
| ACGCAGCAAUAUUACGCCAA | -3.3 ± 0.2 | -1.75 ± 0.17 |
| ACGCAGCAAUAUUACGCCGA | -1.23 ± 0.099 | -0.977 ± 0.094 |
| ACGCAGCAAUAUUACGCUAA | -1.79 ± 0.08 | -0.352 ± 0.081 |
| ACGCAGCAAUAUUACGGACU | -0.613 ± 0.081 | 0.0817 ± 0.098 |
| ACGCAGCAAUAUUACGGAGG | -3.65 ± 0.15 | -1.84 ± 0.12 |
| ACGCAGCAAUAUUACGGCUA | -0.12 ± 0.064 | -0.215 ± 0.075 |
| ACGCAGCAAUAUUACGGGAC | -3.2 ± 0.22 | -1.84 ± 0.2 |
| ACGCAGCAAUAUUACGGGGG | -3.86 ± 0.2 | -2.54 ± 0.19 |
| ACGCAGCAAUAUUACGUAGA | -2.99 ± 0.16 | -2.53 ± 0.21 |
| ACGCAGCAAUAUUACGUAUG | -4.32 ± 0.22 | -2.54 ± 0.16 |
| ACGCAGCAAUAUUACGUCUG | -2.44 ± 0.14 | -2.5 ± 0.28 |
| ACGCAGCAAUAUUACGUGAA | -2.62 ± 0.15 | -1.01 ± 0.13 |
| ACGCAGCAAUAUUACGUGCA | -1.58 ± 0.076 | -0.0655 ± 0.083 |
| ACGCAGCAAUAUUACGUGUA | -2.93 ± 0.11 | -1.6 ± 0.082 |
| ACGCAGCAAUAUUACGUUAU | -3.13 ± 0.12 | -2.12 ± 0.15 |
| ACGGAGCAAUAUUACGAGCA | -3.2 ± 0.34 |  |
| ACGGAGCAAUAUUACGAGCG | -2.76 ± 0.28 | -1.59 ± 0.2 |

Source: the supplement of paper PMC7877785
